In PMC7113243:
pKd: −log10 of the molar value.

Biological target: GST-tagged ID5 (human) (UniProt Q92793)
Test: BLI; GST-tagged ID5 immobilised on the biosensors; IQGAP1-F 0.1 to 19 uM, twelve concentrations; association and dissociation 60 s each; RT; double referenced against buffer and GST; steady state fitted 1:1

- pKd: 6.40
Substance: IQGAP1-F, His-tagged IQGAP1 construct (residues 286-592 of IQGAP1) (from UniProt P46940 286-592) (domain or fragment)
